Laboratory results as given in patent US20090155164A1 (Amgen, published 2009).
Like-named read-outs stand apart in the source and are kept apart here.

Experiments:
[1] = molecular target: T1, human c-fms, full length, on cells (human, UniProt P07333 20-972); assay: cell-based or functional assay
[2] = molecular target: T2, cynomolgus monkey c-fms on primary bone marrow cells (cynomolgus monkey); assay: cell-based or functional assay
[3] = molecular target: T1, human c-fms, full length, on cells; assay: cell-based or functional assay; remark: listed apart in the source
[4] = molecular target: T3, monomeric human c-fms (residues 1-512)-pHis (human, UniProt P07333 20-512); assay: Biacore, low resolution; hybridoma mAb captured on anti-human IgG, monomeric c-fms-pHis analyte at 125 nM
T3 construct: Construct stated as residues 1-512; signal stated as amino acids 1-19 and left out; also called human c-fms (1-512).pHIS; monomeric c-fms
T3 sequence (P07333 20-512): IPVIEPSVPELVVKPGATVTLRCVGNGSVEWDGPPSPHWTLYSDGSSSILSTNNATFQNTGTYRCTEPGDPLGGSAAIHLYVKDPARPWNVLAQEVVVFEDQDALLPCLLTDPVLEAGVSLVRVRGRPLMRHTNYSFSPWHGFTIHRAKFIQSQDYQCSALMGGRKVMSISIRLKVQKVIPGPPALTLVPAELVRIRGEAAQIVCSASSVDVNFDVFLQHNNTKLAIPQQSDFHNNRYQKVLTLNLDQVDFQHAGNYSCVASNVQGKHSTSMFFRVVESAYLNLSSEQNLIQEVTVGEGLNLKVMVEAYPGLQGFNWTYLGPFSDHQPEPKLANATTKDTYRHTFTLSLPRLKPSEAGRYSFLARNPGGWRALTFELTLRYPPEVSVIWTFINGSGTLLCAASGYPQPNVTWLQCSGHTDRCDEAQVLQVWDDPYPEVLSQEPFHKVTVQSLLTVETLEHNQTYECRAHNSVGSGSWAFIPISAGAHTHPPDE
Description: Anti-human IgG was immobilized on all four flow cells of a sensor chip using amine coupling. Crude hybridoma samples were diluted into halves and captured on the anti-IgG surface. […] Sequence lineage analyses were also performed on the 29 hybridomas (see, FIG. 2).

[5] = molecular target: T2, cynomolgus monkey c-fms on primary bone …; assay: cell-based or functional assay; remark: listed apart in the source

T1 sequence (P07333 20-972): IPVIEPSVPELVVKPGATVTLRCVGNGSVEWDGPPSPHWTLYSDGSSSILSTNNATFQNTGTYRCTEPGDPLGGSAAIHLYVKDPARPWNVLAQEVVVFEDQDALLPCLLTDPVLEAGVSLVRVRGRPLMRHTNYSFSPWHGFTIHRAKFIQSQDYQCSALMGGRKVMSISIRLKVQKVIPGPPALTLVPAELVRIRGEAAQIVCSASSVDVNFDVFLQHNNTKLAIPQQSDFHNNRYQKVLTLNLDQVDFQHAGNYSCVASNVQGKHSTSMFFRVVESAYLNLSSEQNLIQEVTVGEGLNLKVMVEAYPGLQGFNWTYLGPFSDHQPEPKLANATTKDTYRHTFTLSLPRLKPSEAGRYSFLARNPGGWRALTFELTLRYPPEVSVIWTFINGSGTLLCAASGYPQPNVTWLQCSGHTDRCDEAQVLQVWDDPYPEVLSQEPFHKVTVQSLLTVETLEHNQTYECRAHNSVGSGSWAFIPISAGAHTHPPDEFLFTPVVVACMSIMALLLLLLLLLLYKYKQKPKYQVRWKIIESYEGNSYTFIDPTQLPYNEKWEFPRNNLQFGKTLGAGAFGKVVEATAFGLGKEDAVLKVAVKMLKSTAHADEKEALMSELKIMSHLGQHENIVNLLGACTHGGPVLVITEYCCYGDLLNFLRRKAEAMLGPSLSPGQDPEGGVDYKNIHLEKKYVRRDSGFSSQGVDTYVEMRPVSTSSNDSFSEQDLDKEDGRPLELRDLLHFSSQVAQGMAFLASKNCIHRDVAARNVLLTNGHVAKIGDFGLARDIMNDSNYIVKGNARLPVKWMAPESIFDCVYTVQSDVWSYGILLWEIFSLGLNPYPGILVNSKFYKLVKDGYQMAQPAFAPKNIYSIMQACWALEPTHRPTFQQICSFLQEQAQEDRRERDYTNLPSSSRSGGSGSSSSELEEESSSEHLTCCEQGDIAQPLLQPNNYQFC

| Binder | AML-5 bioassay IC50 [1] [ng/mL] | Human CD14+ monocytes bioassay IC50 [1] [ng/mL] | Cynomolgus bone marrow bioassay IC50 [2] [pM] | AML-5 bioassay IC50 [3] [pM] | Human CD14+ monocytes bioassay IC50 [3] [pM] | Kd [4] [pM] | koff [4] [s⁻¹] | kon [4] [M⁻¹ s⁻¹] | Cynomolgus bone marrow bioassay IC50 [5] [ng/mL] |
| --- | --- | --- | --- | --- | --- | --- | --- | --- | --- |
| anti-c-fms hybridoma antibody 1.42 (antibody, IgG1, V domains shown, Hybridoma IgG1 (cohort 1); also called 1.42.3) VH: QVQLVQSGAEVKKPGASVKVSCKASGYTFTSYGISWVRQAPGQGLEWMGWISAYNGNTNYAQKLQGRVTMTTDTSTSTAYMELRSLRSDDTAVYYCARESWFGEVFFDYWGQGTLVTVSS VL: not shown | 3 | 10 | 200 | 20 | 67 | 1600 | 0.00107 | 660000 |  |
| anti-c-fms hybridoma antibody 1.2 (antibody, V domains shown, Hybridoma IgG1 (cohort 1); also called 1.2.1) VH: QVQLVQSGAEVKKPGASVKVSCKASGYTFTSYGISWVRQAPGQGLEWMGWISAYNGNTNYAQKLQGRVTMTTDTSTSTAYMELRSLRSDDTAVYYCARESWFGEVFFDYWGQGTLVTVSS VL: not shown | 0.9 | < 1 | 40 | 6 | < 7 | 1400 | 0.00113 | 817000 | 6 |
| anti-c-fms hybridoma antibody 1.30 (antibody, IgG1, V domains shown, Hybridoma IgG1 (cohort 1); also called 1.30.2; 1.30.3) VH: QVQLVQSGAEVKKPGASVKVSCKASGYTFTSYGISWVRQAPGQGLEWMGWISAYNGNTNYAQKLQGRVTMTTDTSTSTAYMELRSLRSDDTAVYYCARESWFGEVFFDYWGQGTLVTVSS VL: not shown | 6 | 10 | 267 | 40 | 67 | 3400 | 0.0014 | 406000 | 10 |
| anti-c-fms hybridoma antibody 1.64 (antibody, IgG1, V domains shown, Hybridoma IgG1 (cohort 1); also called 1.64.1; 1.64.2) VH: EVQLVESGGGLVQPGGSLRLSCAASGFTFSSYDMHWVRQATGKGLEWVSGIGTAGDTYYPGSVKGRFNISRENAKNSLYLQMNSLRAGDTAVYYCAREGSWYGFDYWGQGTLVTVSS VL: EIVLTQSPGTLSLSPGERATLSCRASQSVSSGYLAYLAWYQQKPGQAPRLLIYGASSTATGIPDRFSGSGSGTDFTLTISRLEPEDFAVYYCQQYGSSPITFGQGTRLEIK | 0.6 | 2 |  | 4 | 13 | 2500 | 0.00064 | 255000 |  |
| anti-c-fms hybridoma antibody 1.66 (antibody, IgG1, V domains shown, Hybridoma IgG1 (cohort 1); also called 1.66.1; 1.66.2) VH: QVQLVESGGGVVQPGRSLRLSCAASGFTFSSYGMHWVRQAPGKGLEWVAVIWYDGSNEYYADSVKGRFTISRDNSKSTLYLQMNSLRAEDTAVYYCAHSSGNYYDMDVWGQGTTVTVSS VL: not shown | 4 | 10 | 47 | 27 | 67 | 23000 | 0.0055 | 239000 | 7 |
| anti-c-fms hybridoma antibody 1.109 (antibody, V domains shown, Hybridoma IgG1 (cohort 1)) VH: not shown VL: DIQMTQSPSSLSASVGDRVTITCQASQNISNFLDWYQQKPGKAPNLLIYDASDLDPGVPSRFSGSGSGTDFTFTISSLQPEDIATYYCQQYVSLPLTFGGGTKVEIK | 0.7 | 3 | 73 | 5 | 20 | 100 | 4.36e-05 | 385000 | 11 |
| anti-c-fms hybridoma antibody 1.134 (antibody, IgG1, V domains shown, Hybridoma IgG1 (cohort 1); also called 1.134.1) VH: QVQLVESGGGVVQPGRSLRLSCAASGFTFSSYGMHWVRQAPGKGLEWVAVIWYDGSNKYYADSVKGRFTISRDNSKNTLYLQMNSLRAEDTAVYYCASSSWSYYGMDVWGQGTTVTVSS VL: DIQMTQSPSSLSASVGDRVTITCQASQDINNYLNWYQQKPGKAPKLLIYDASNLEIGVPSRFSGSGSGTDFIFTISSLQPEDIATYYCQQYDNFPFTFGGGTKVEIK | 1 | < 1 | 40 | 7 | < 7 | 4600 | 0.000703 | 153000 | 6 |
| anti-c-fms hybridoma antibody 2.508 (antibody, IgG2, V domains shown, Hybridoma IgG2 (cohort 2); also called 2.508.1; 2.508.2) VH: QVQLVQSGAEVKKPGASVKVSCKVSGYTLTELSMHWVRQAPGKGLEWMGGFDPEDGETIYAQKFQGRVTMTEDTSTDTAYMELSSLRSEDTAVYYCATAGLEIRWFDPWGQGTLVTVSS VL: DIVMTQSPLSLPVTPGEPASISCRSSQSLLHSNGYNYLDWYLQKPGQSPQFLIYLGSIRASGVPDRFSGSGSGTDFALTISRVEAEDVGVYYCMQALQTPRTFGQGTKVEIK | 5 | 20 |  | 20 | 133 | 700 | 5.28e-05 | 74900 |  |
| anti-c-fms hybridoma antibody 2.534 (antibody, IgG2, V domains shown, Hybridoma IgG2 (cohort 2); also called 2.534.1; 2.534.2) VH: QVQLQESGPGLVKPSQTLSLTCTVSGGSISSGGYYWSWIRQHPGKGLEWIGYISYSGDTYYNPSLKSRLTISVDTSKHQFSLRLSSVTSADTAVYYCASLDLYGDYFDYWGQGTLVTVSS VL: EIVLTQSPDFQSVTPKEKVTITCRASQYIGSSLHWYQQTPDQSPKLLINYVSQSFSGVPSRFSGSGSGTDFTLTINSLEAEDAATYYCHQSSSLPFTFGPGTKVDIK | 3 | 7 |  | 20 | 47 | 43000 | 0.015 | 345000 |  |
| anti-c-fms hybridoma antibody 1.33.1.1 (antibody, IgG1, V domains shown, Hybridoma IgG1 (cohort 1)) VH: not shown VL: DIQMTQSPSSLSASVGDRVTITCRASQSISDYLNWYQQKPGKAPNLLIYAASSLQSGVPSRFSGSGSGTDFTLTISSLQPEDFATYFCQQTYSDPFTFGPGTKVDIK |  |  |  |  |  | 1200 | 0.000116 | 98900 |  |
| anti-c-fms hybridoma antibody 1.72 (antibody, IgG1, V domains shown, Hybridoma IgG1 (cohort 1); also called 1.72.2) VH: EVQLVESGGGLVEPGGSLRLSCAASGFTFSTAWMSWVRQAPGKGLEWVGRIKSKTDGGTTDYAAPVKGRFTISRDDSKNTLYLQMNSLKNEDTAVYYCTTEGPYSNYGYYYYGVDVWGQGTTVTVSS VL: not shown |  |  |  |  |  | 5500 | 0.000568 | 103000 |  |
| anti-c-fms hybridoma antibody 2.131 (antibody, IgG2, V domains shown, Hybridoma IgG2 (cohort 2); also called 2.131.2) VH: QVQLQESGPGLVKPSETLSLTCTVSGGSISNYYWSWIRQSAGKGLEWIGRIYTSGSTHYNPSLKSRIIMSVDTSKNQFSLKLSSVTAADTAVYYCARDRVFYGMDVWGQGTTVTVSS VL: DIQMTQSPSSLSASVGDRVTITCRASQGFSNYLAWYQQKPGKVPKLLIYAASTLQSGVPSRFSGSGSGTDFTLTISSLQPEDVATYYCQKYNSAPLTFGGGTKVEIK |  |  |  |  |  | ≤ 200 | ≤ 1e-05 | 43000 |  |
| anti-c-fms hybridoma antibody 1.13 (antibody, V domains shown, Hybridoma IgG1 (cohort 1)) VH: QVQLQESGPGLVKPSETLSLTCTVSGGSVSSGGYYWSWIRQPPGKGLEWIGYIYYSGSTNYNPSLKSRVTISVDTSKNQFSLKLSSVTAADTAVYYCAAGIAATGTLFDCWGQGTLVTVSS VL: DIQMTQSPSSLSASVGDRVTITCQASQDISNYLNWYQQKPGKAPKLLIYDASNLETGVPSRFSGSGSGTDFTFIISSLQPEDIATYYCQQFDNLPPTFGGGTKVESK |  |  |  |  |  | 6400 | 0.000773 | 120000 |  |
| anti-c-fms hybridoma antibody 2.65 (antibody, IgG2, V domains shown, Hybridoma IgG2 (cohort 2); also called 2.65.2) VH: not shown VL: DIQMTQSPSSLSASVGDRVTITCQASQDINNYLNWYQQKPGKAPKLLIYDASNLETGVPSRFSGSGSGTDFTFTISSLQPEDIATYYCQQYDDLLTFGGGTKVEIK |  |  |  |  |  | 9500 | 0.0016 | 168000 |  |
| anti-c-fms hybridoma antibody 1.90 (antibody, IgG1, V domains shown, Hybridoma IgG1 (cohort 1); also called 1.90.2) VH: QVQLVESGGGVVQPGRSLRLSCAASGFTFSSYGMHWVRQAPGKGLEWVAVIWYDGSNKYYADSVKGRFTISRDNSKNTLYLQMNSLRAEDTAVYYCASSSSNFYDMDVWGQGTTVTVSS VL: DIQMTQSPSSLSASVGDRVTITCQASQDISNYLNWYQQKPGKAPKLLIYDASNLETGVPSRFSGSGSGTDFTFTISSLQPEDIATYYCQRYDDLPITFGQGTRLEIK |  |  |  |  |  | 10000 | 0.002 | 193000 |  |
| anti-c-fms hybridoma antibody 2.369 (antibody, IgG2, V domains shown, Hybridoma IgG2 (cohort 2); also called 2.369.3) VH: QVQLVQSGAEVKKPGASVKVSCKVSGYTLTELSMHWVRQAPGKGLEWMGGFDPEDGETIYAQKFQGRVTMTEDTSTDTAYMELSSLRSEDTAVYYCATRAGTTLAYYYYAMDVWGQGTTVTVSS VL: DIQMTQSPSSLSASVGDRVTITCRASQSISRYLNWYQQKPGKAPNLLIHAASSLQSGVPSRFSGSGSGTDFTLTISSLQPEDFATYYCQQSYITPPSFGQGTKLEIK |  |  |  |  |  | 14000 | 0.00138 | 100000 |  |
| anti-c-fms hybridoma antibody 1.16 (antibody, IgG1, V domains shown, Hybridoma IgG1 (cohort 1)) VH: not shown VL: DIQMTQSPSSLSASVGDRVTITCQASQDISNYLNWYQQKPGKAPKFLIYDASNLETGVPSRFSGSGSGTDFTFTISSLQPEDIATYYCQQYDNLITFGQGTRLEIK |  |  |  |  |  | 23000 | 0.00296 | 129000 |  |
| anti-c-fms hybridoma antibody 2.550 (antibody, IgG2, V domains shown, Hybridoma IgG2 (cohort 2)) VH: QVQLVQSGAEVKKPGASVKVSCKASGYTLTSYGISWVRQAPGQGLEWMGWISAYNGNPNYAQKFQGRVTMTTDTSTSTAYMELRSLRSDDTAVYYCARDQGLLGFGELEGLFDYWGQGTLVTVSS VL: not shown |  |  |  |  |  | 24000 | 0.00724 | 300000 |  |
| anti-c-fms hybridoma antibody 1.131 (antibody, IgG1, V domains shown, Hybridoma IgG1 (cohort 1); also called 1.131.1) VH: not shown VL: DNVMTQTPLSLSVTPGQPASISCKSSQSLLHSDGKTYLYWYLQKPGQPPQLLIYEASNRFSGVPDRFSGSGSGTDFTLKISRVEAEDVGVYYCMQSIQLPLTFGGGTKVEIK |  |  |  |  |  | 41000 | 0.00215 | 53100 |  |
